Molecular target: SNAP 25 (endogenous, rat neuronal cells) (rat) (UniProt P60881)
Test: cell-based or functional assay

Sequence of UniProt P60881 (P60881 whole entry): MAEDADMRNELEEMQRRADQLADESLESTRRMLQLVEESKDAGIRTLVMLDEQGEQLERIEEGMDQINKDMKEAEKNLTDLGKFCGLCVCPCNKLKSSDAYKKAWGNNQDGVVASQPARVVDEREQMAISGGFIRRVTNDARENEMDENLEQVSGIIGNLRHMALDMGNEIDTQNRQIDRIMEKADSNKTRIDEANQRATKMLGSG

“BoNT/Aad^ek, AcTEV- and enterokinase-processed disulfide-bonded LC-HC heterodimer (from UniProt P0DPI1 2-449; P0DPI0 449-1296)” showed a cleavage of intracellular SNAP 25 (none detectable at the concentration tested) of 500 nM.
